Experiment: HEK293T adhesion to FN-coated surface, crystal violet, Ca2+-Mg2+
Conditions: glycan lost; control: αVβ3(N339S)

B1: integrin αV subunit (of αVβ3): αV(N266Q)β3(N339S) (protein)
parent chain: MAFPPRRRLRLGPRGLPLLLSGLLLPLCRAFNLDVDSPAEYSGPEGSYFGFAVDFFVPSASSRMFLLVGAPKANTTQPGIVEGGQVLKCDWSSTRRCQPIEFDATGNRDYAKDDPLEFKSHQWFGASVRSKQDKILACAPLYHWRTEMKQEREPVGTCFLQDGTKTVEYAPCRSQDIDADGQGFCQGGFSIDFTKADRVLLGGPGSFYWQGQLISDQVAEIVSKYDPNVYSIKYNNQLATRTAQAIFDDSYLGYSVAVGDFNGDGIDDFVSGVPRAARTLGMVYIYDGKNMSSLYNFTGEQMAAYFGFSVAATDINGDDYADVFIGAPLFMDRGSDGKLQEVGQVSVSLQRASGDFQTTKLNGFEVFARFGSAIAPLGDLDQDGFNDIAIAAPYGGEDKKGIVYIFNGRSTGLNAVPSQILEGQWAARSMPPSFGYSMKGATDIDKNGYPDLIVGAFGVDRAILYRARPVITVNAGLEVYPSILNQDNKTCSLPGTALKVSCFNVRFCLKADGKGVLPRKLNFQVELLLDKLKQKGAIRRALFLYSRSPSHSKNMTISRGGLMQCEELIAYLRDESEFRDKLTPITIFMEYRLDYRTAADTTGLQPILNQFTPANISRQAHILLDCGEDNVCKPKLEVSVDSDQKKIYIGDDNPLTLIVKAQNQGEGAYEAELIVSIPLQADFIGVVRNNEALARLSCAFKTENQTRQVVCDLGNPMKAGTQLLAGLRFSVHQQSEMDTSVKFDLQIQSSNLFDKVSPVVSHKVDLAVLAAVEIRGVSSPDHVFLPIPNWEHKENPETEEDVGPVVQHIYELRNNGPSSFSKAMLHLQWPYKYNNNTLLYILHYDIDGPMNCTSDMEINPLRIKISSLQTTEKNDTVAGQGERDHLITKRDLALSEGDIHTLGCGVAQCLKIVCQVGRLDRGKSAILYVKSLLWTETFMNKENQNHSYSLKSSASFNVIEFPYKNLPIEDITNSTLVTTNVTWGIQPAPMPVPVWVIILAVLAGLLLLAVLVFVMYRMGFFKRVRPPQEEQEREQLQPHENGEGNSET
  other: cell adhesion, percent_of_wt: decreases
